The target in test [1] is RACK1, receptor of activated C kinase (human, UniProt P63244 1-317). Description: Copine-III IP from SKBr3 lysates, relative quantification by MRM mass spectrometry.
The target of test [2] is T1, ErbB2 (human, UniProt P04626 23-1255, tyrosine-phosphorylated (active) receptor after HRG stimulation; sites not resolved in the IP and FRET experiments).
T1 construct: whole, on cells; Endogenous receptor, tested in fixed cells (FRET) and in cell lysates (co-IP); also called HER2
The test is described as follows: ErbB2 immunoprecipitation from SKBr3 and T47D cells.

B1: Copine III (other)
chain: MAAQCVTKVALNVSCANLLDKDIGSKSDPLCVLFLNTSGQQWYEVERTERIKNCLNPQFSKTFIIDYYFEVVQKLKFGVYDIDNKTIELSDDDFLGECECTLGQIVSSKKLTRPLVMKTGRPAGKGSITISAEEIKDNRVVLFEMEARKLDNKDLFGKSDPYLEFHKQTSDGNWLMVHRTEVVKNNLNPVWRPFKISLNSLCYGDMDKTIKVECYDYDNDGSHDLIGTFQTTMTKLKEASRSSPVEFECINEKKRQKKKSYKNSGVISVKQCEITVECTFLDYIMGGCQLNFTVGVDFTGSNGDPRSPDSLHYISPNGVNEYLTALWSVGLVIQDYDADKMFPAFGFGAQIPPQWQVSHEFPMNFNPSNPYCNGIQGIVEAYRSCLPQIKLYGPTNFSPIINHVARFAAAATQQQTASQYFVLLIITDGVITDLDETRQAIVNASRLPMSIIIVGVGGADFSAMEFLDGDGGSLRSPLGEVAIRDIVQFVPFRQFQNAPKEALAQCVLAEIPQQVVGYFNTYKLLPPKNPATKQQKQ
notes: Endogenous protein of the human breast tumor cell lines T47D and SKBr3, tested in cell lysates (pull-down, IP) or in fixed cells (FRET); also called CPNE3; CPN3
In the case of B1, the “fold enrichment in Copine-III IPs vs. control IPs” value in test [1] turned out to be 1.5 fold. Also, the binding result in test [2] is “binds”.

Values taken from patent EP2292266A1 (Novartis Forschungsstiftung, Zweigniederlassung, dated 2011).
